Reference: patent US20260184748A1, “COMPOSITIONS COMPRISING OCTADECANEUROPEPTIDES (ODN) AND SYNTHETIC DERIVATIVES THEREOF AND METHODS OF USE FOR MODULATION OF FOOD INTAKE, OBESITY, BODY WEIGHT, NAUSEA, AND EMESIS” (The Trustees of the University of Pennsylvania, priority 2022, published 2026)
Each block holds one substance with its values, some of them ahead of it.

Assays:
Test in all cases: cell-based or functional assay
[1] = target: relaxin-3 receptor (RXFP3) (UniProt Q9NSD7)
[2] = target: T1, CCR1 (UniProt P32246)
T1 sequence (looked up): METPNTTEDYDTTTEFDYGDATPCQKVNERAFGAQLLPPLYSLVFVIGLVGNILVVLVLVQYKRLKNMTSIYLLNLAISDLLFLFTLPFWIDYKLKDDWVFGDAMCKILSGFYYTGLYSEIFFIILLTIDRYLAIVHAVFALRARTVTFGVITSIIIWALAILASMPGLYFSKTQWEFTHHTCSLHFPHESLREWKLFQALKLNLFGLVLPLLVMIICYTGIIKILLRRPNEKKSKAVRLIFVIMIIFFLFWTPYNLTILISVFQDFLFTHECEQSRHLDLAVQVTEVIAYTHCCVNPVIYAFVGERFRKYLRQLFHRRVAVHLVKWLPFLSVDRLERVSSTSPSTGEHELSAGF

[3] = target: CCR5 (UniProt P51681)
Sequence of CCR5 (P51681 whole entry): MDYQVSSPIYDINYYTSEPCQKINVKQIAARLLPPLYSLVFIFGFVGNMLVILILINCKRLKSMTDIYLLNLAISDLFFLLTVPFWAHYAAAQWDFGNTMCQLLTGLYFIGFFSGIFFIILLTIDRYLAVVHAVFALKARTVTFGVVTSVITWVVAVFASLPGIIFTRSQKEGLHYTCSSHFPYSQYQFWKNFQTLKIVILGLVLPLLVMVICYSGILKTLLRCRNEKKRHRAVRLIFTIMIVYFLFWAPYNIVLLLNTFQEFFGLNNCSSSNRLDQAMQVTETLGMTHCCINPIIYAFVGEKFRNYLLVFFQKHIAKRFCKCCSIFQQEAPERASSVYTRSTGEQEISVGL

[4] = target: HCRTR2 (UniProt O43614)
[5] = target: GPR1 (UniProt P46091)
Sequence of GPR1 (P46091 whole entry): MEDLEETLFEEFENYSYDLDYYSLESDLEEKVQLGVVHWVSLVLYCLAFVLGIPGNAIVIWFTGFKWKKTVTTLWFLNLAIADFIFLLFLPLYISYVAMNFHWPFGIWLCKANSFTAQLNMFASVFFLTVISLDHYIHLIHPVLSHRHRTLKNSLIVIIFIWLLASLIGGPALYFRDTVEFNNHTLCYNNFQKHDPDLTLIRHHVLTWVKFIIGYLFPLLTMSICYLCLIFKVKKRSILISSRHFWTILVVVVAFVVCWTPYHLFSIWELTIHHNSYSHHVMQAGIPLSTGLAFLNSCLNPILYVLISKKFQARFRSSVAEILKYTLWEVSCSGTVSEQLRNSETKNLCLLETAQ

[6] = target: CCR9 (UniProt P51686)
[7] = target: NPY1R (UniProt P25929)
[8] = target: T2, CCR6 (UniProt P51684)
T2 sequence (looked up): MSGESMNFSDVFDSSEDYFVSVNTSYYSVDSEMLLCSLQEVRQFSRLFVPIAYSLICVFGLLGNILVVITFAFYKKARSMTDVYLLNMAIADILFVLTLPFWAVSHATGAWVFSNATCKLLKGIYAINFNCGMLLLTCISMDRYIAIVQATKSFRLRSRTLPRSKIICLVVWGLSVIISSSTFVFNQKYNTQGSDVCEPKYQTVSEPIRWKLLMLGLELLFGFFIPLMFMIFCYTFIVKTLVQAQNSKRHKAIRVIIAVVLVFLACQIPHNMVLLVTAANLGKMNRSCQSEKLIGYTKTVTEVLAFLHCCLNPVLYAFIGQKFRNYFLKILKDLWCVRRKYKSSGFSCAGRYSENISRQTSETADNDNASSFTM

[9] = target: BRS3 (UniProt P32247)
[10] = target: BDKRB1 (UniProt P46663)
[11] = target: CCR7 (UniProt P32248)
[12] = target: T3, CXCR1 (UniProt P25024)
T3 sequence (looked up): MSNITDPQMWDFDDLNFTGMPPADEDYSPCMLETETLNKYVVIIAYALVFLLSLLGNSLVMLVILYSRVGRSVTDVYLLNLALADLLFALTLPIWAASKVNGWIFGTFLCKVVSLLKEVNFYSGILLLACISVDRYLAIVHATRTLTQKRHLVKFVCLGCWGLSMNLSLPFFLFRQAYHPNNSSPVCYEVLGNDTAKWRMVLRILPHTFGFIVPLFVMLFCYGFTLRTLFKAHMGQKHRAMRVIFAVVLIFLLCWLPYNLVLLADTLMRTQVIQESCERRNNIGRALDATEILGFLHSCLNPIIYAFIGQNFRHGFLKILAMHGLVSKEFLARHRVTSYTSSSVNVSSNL

[13] = target: CXCR2 (UniProt P25025)
Sequence of CXCR2 (P25025 whole entry): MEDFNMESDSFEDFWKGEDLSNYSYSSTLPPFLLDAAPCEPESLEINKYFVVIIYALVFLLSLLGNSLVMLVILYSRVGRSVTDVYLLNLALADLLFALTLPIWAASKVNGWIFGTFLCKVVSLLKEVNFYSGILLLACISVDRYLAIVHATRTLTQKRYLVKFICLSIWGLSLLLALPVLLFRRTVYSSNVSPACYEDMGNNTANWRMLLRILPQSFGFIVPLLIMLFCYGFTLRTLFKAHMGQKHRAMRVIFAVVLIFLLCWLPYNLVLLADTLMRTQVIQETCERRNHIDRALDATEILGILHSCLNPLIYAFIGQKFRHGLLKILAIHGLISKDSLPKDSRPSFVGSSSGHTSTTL

[14] = target: T4, GALR2 (UniProt O43603)
T4 sequence (looked up): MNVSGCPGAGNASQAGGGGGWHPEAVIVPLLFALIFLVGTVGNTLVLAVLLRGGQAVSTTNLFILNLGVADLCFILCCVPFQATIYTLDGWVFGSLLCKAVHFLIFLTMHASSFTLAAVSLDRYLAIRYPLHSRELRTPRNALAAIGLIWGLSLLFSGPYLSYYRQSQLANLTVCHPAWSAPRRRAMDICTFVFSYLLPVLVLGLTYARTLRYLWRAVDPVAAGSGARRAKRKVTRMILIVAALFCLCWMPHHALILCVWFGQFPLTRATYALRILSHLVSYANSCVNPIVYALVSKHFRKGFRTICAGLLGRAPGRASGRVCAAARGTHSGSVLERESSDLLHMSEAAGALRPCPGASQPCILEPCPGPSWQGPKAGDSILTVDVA

[15] = target: TRHR (UniProt P34981)
Sequence of TRHR (P34981 whole entry): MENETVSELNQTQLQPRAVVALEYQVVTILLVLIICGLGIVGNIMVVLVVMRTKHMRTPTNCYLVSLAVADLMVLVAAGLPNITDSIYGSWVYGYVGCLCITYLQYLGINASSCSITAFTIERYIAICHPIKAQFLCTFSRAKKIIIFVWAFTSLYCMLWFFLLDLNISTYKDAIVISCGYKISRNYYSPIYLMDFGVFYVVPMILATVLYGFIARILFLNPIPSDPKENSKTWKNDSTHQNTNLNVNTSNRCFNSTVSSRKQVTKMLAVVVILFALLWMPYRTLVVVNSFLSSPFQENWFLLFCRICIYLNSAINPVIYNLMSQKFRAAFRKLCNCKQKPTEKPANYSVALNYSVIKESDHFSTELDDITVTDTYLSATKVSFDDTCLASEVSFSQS

[16] = target: OXTR (UniProt P30559)
[17] = target: GLP2R (UniProt O95838)
Sequence of GLP2R (O95838 whole entry): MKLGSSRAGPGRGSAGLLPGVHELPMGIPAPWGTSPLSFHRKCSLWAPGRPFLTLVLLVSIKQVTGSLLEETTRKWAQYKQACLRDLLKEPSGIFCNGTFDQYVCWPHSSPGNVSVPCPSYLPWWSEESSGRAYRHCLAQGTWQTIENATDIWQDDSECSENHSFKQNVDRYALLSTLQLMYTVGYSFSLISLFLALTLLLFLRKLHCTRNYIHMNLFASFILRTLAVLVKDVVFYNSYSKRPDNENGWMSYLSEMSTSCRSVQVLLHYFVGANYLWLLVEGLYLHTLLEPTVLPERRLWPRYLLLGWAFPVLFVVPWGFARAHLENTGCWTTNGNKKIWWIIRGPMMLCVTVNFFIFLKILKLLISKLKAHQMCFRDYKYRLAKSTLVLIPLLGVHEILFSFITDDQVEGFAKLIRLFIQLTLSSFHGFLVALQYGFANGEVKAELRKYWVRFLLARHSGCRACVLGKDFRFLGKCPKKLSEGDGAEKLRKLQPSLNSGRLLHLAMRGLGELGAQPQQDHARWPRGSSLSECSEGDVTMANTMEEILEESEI

[18] = target: GRPR (UniProt P30550)
[19] = target: PRLHR (UniProt P49683)
[20] = target: T5, CALCR (UniProt P30988)
T5 sequence (looked up): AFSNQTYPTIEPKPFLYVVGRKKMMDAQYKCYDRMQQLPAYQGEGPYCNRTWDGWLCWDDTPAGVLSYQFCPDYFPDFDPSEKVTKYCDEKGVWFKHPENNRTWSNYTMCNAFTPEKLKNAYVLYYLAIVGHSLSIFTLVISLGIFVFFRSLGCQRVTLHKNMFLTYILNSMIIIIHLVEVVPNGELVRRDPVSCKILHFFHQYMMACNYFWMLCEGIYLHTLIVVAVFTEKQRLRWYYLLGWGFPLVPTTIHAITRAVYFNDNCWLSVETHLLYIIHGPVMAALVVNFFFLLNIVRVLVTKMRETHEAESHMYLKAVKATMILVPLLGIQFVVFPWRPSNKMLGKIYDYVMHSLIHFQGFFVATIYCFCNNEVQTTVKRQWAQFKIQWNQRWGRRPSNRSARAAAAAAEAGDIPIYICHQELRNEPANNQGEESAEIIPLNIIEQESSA

[21] = target: CALCR-RAMP2 (UniProt P30988)
[22] = target: T6, CALCR-RAMP3 (UniProt P30988)
T6 sequence (looked up) 1: T5 sequence (looked up)
T6 sequence (looked up) 2: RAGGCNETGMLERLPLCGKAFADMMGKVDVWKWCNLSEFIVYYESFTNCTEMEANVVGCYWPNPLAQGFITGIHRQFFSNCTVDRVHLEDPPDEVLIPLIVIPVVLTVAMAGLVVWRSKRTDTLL

[23] = target: GIPR (UniProt P48546)
[24] = target: CX3CR1 (UniProt P49238)
[25] = target: MLNR (UniProt O43193)
Sequence of MLNR (O43193 whole entry): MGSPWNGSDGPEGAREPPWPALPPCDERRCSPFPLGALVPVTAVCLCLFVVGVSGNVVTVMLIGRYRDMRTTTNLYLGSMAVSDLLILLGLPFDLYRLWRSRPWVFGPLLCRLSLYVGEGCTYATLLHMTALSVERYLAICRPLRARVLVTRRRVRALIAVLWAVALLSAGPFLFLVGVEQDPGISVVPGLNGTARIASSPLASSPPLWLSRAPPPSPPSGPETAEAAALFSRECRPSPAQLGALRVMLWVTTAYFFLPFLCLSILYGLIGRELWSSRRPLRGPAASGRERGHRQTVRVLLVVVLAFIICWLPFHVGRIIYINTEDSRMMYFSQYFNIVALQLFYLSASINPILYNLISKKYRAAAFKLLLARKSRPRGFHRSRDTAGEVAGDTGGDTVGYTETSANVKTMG

[26] = target: SCTR (UniProt P47872)
Sequence of SCTR (P47872 23-440 limits assumed): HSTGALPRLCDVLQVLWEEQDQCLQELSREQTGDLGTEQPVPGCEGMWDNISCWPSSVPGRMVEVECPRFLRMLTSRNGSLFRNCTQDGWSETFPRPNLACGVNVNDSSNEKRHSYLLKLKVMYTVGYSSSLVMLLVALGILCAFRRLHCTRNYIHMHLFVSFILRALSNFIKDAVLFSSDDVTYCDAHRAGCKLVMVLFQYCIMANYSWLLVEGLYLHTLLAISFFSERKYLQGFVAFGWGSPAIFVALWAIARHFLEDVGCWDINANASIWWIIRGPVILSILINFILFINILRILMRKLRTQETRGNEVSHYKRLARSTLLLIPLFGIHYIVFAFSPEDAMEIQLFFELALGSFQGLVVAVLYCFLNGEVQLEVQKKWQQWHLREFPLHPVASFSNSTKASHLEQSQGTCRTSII

[27] = target: CCR2 (UniProt P41597)
[28] = target: CCR3 (UniProt P51677)
[29] = target: KISS1R (UniProt Q969F8)
Sequence of KISS1R (Q969F8 whole entry): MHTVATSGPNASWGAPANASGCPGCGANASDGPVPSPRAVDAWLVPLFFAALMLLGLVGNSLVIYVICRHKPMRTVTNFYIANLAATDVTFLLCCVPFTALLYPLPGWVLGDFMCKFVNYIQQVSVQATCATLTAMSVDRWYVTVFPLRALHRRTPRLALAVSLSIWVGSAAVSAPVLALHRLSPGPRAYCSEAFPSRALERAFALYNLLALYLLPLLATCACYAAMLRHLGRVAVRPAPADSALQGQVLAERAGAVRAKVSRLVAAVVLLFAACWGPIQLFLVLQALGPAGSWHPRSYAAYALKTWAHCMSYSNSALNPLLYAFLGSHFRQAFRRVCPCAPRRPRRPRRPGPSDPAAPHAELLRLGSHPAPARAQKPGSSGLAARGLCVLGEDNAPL

[30] = target: BDKRB2 (UniProt P30411)
Sequence of BDKRB2 (P30411 whole entry): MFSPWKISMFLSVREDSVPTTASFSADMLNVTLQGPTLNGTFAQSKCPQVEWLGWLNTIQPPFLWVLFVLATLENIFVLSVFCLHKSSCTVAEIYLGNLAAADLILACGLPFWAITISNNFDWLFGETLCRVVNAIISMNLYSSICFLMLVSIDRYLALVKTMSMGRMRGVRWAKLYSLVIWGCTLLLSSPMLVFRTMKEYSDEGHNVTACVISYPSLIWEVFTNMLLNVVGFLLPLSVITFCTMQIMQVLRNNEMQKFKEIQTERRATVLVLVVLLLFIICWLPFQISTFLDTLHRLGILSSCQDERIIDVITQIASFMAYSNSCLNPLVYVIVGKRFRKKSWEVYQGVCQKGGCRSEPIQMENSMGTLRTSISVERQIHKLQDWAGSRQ

[31] = target: C5L2 (UniProt Q9P296)
[32] = target: C5aR1 (UniProt P21730)
[33] = target: VIPR1 (UniProt P32241)

Sequence of CCL3 (P10147 24-92 limits assumed): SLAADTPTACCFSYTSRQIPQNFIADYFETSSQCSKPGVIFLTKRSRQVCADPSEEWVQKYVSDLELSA
Sequence of Calcitonin (P01258 85-116 limits assumed): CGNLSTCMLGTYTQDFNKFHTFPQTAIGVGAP
Sequence of CXCL8 (P10145 28-99 limits assumed): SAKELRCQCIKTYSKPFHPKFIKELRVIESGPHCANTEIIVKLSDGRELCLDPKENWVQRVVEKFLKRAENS
Sequence of Complement C5a (P01031 678-751 limits assumed): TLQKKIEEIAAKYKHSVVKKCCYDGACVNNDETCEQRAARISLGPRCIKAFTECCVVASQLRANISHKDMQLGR
Sequence of CCL20 (P78556 27-96 limits assumed): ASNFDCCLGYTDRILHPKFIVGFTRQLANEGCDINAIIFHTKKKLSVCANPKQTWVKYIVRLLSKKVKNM
Sequence of relaxin-3 receptor (RXFP3) (Q9NSD7 whole entry): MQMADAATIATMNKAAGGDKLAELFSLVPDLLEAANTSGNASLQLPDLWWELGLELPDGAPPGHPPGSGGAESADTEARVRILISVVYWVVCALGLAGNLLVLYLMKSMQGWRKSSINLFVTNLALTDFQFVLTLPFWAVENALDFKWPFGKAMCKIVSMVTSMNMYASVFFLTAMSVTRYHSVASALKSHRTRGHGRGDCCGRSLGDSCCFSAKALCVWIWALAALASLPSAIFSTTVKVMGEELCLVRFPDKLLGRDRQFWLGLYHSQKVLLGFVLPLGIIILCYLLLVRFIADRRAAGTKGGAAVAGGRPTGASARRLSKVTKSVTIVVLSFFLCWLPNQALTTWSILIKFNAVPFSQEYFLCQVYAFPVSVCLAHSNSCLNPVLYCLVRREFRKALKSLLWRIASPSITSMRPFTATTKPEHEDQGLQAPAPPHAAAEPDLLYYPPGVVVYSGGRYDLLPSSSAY
Sequence of Galanin (P22466 33-62 limits assumed): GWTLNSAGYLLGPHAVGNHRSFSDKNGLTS
Sequence of CCL19 (Q99731 22-98 limits assumed): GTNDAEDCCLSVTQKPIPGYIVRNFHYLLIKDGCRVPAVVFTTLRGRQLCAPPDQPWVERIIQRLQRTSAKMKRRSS
Sequence of Fractalkine (P78423 25-100 limits assumed): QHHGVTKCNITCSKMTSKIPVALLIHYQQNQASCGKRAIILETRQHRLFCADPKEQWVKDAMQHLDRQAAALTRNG
Sequence of PrRP-31 (P81277 23-53 limits assumed): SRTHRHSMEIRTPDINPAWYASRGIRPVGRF

- EC50 (RC50), arrestin, agonist mode [1]: 11.9 nM
- EC80, arrestin, agonist mode [1]: 62.5 nM
Substance: Relaxin-3 (from UniProt Q8WXF3 26-142; Q8WXF3 26-142) (ligand)

- EC50 (RC50), arrestin, agonist mode [5]: 2.26 nM
- EC80, arrestin, agonist mode [5]: 4.67 nM
Substance: Chemerin (from UniProt Q99969 21-157) (ligand)

- EC50 (RC50), arrestin, agonist mode [6]: 173 nM
- EC80, arrestin, agonist mode [6]: 370 nM
Substance: CCL25 (from UniProt O15444 24-150) (ligand)

- EC50 (RC50), arrestin, agonist mode [11]: 5.65 nM
- EC80, arrestin, agonist mode [11]: 19 nM
Substance: CCL19 (from UniProt Q99731 22-98) (ligand)

- EC50 (RC50), arrestin, agonist mode [16]: 3.23 nM
- EC80, arrestin, agonist mode [16]: 7.19 nM
Substance: Oxytocin (from UniProt P01178 20-28) (peptide)

- EC50 (RC50), arrestin, agonist mode [17]: 2.3 nM
- EC80, arrestin, agonist mode [17]: 8.97 nM
Substance: GLP II (1-33) (from UniProt P01275 21-180) (peptide)

- EC80, arrestin, agonist mode [19]: 10.7 nM
Substance: PrRP-31 (from UniProt P81277 23-53) (peptide)

- EC80, arrestin, agonist mode [20]: 72.9 nM
- EC80, arrestin, agonist mode [21]: 33.7 nM
- EC80, arrestin, agonist mode [22]: 384 nM
Substance: Calcitonin (from UniProt P01258 85-116) (peptide)

- EC50 (RC50), arrestin, agonist mode [25]: 1.59 nM
- EC80, arrestin, agonist mode [25]: 5.63 nM
Substance: Motilin (from UniProt P12872 26-47) (peptide)

- EC50 (RC50), arrestin, agonist mode [26]: 1.74 nM
- EC80, arrestin, agonist mode [26]: 9.2 nM
Substance: Secretin (from UniProt P09683 28-54) (peptide)

- EC50 (RC50), arrestin, agonist mode [27]: 2.63 nM
- EC80, arrestin, agonist mode [27]: 6.92 nM
Substance: CCL2 (from UniProt P13500 24-99) (ligand)

- EC50 (RC50), arrestin, agonist mode [28]: 40.6 nM
- EC80, arrestin, agonist mode [28]: 140 nM
Substance: CCL13 (from UniProt Q99616 24-98) (ligand)

- EC50 (RC50), arrestin, agonist mode [29]: 17.6 nM
- EC80, arrestin, agonist mode [29]: 37.6 nM
Substance: Kisspeptin-10 (from UniProt Q15726 112-121) (peptide)

The next lines start with the substance.

Substance: CCL3 (from UniProt P10147 24-92) (ligand)
- EC50 (RC50), arrestin, agonist mode [2]: 1.04 nM
- EC80, arrestin, agonist mode [2]: 2.53 nM
- EC50 (RC50), arrestin, agonist mode [3]: 7.55 nM
- EC80, arrestin, agonist mode [3]: 30.3 nM

Substance: Orexin A (from UniProt O43612 34-66) (peptide)
- EC50 (RC50), arrestin, agonist mode [4]: 18.2 nM
- EC80, arrestin, agonist mode [4]: 42.5 nM

Substance: Peptide YY (from UniProt P10082 29-64)
- EC50 (RC50), arrestin, agonist mode [7]: 3.93 nM
- EC80, arrestin, agonist mode [7]: 12.4 nM

Substance: CCL20 (from UniProt P78556 27-96) (ligand)
- EC50 (RC50), arrestin, agonist mode [8]: 2.95 nM
- EC80, arrestin, agonist mode [8]: 14.3 nM

Substance: TAPN-Bombesin (peptide)
- EC50 (RC50), arrestin, agonist mode [9]: 1.24 nM
- EC80, arrestin, agonist mode [9]: 3.73 nM

Substance: LDA-Bradykinin (peptide)
- EC50 (RC50), arrestin, agonist mode [10]: 3.65 nM
- EC80, arrestin, agonist mode [10]: 14 nM

Substance: CXCL8 (from UniProt P10145 28-99) (ligand)
- EC50 (RC50), arrestin, agonist mode [12]: 2.8 nM
- EC80, arrestin, agonist mode [12]: 14.8 nM
- EC50 (RC50), arrestin, agonist mode [13]: 0.304 nM
- EC80, arrestin, agonist mode [13]: 0.968 nM

Substance: Galanin (from UniProt P22466 33-62) (peptide)
- EC50 (RC50), arrestin, agonist mode [14]: 6.81 nM
- EC80, arrestin, agonist mode [14]: 12.2 nM

Substance: TRH (from UniProt P20396 84-86) (peptide)
- EC50 (RC50), arrestin, agonist mode [15]: 2.02 nM
- EC80, arrestin, agonist mode [15]: 7.14 nM

Substance: GRP (from UniProt P07492 24-50) (peptide)
- EC50 (RC50), arrestin, agonist mode [18]: 1.62 nM
- EC80, arrestin, agonist mode [18]: 5.92 nM

Substance: GIP (from UniProt P09681 52-93) (peptide)
- EC50 (RC50), arrestin, agonist mode [23]: 4.87 nM
- EC80, arrestin, agonist mode [23]: 18.5 nM

Substance: Fractalkine (from UniProt P78423 25-100) (ligand)
- EC50 (RC50), arrestin, agonist mode [24]: 0.444 nM
- EC80, arrestin, agonist mode [24]: 1.45 nM

Substance: Bradykinin (from UniProt P01042 381-389) (peptide)
- EC50 (RC50), arrestin, agonist mode [30]: 5.57 nM
- EC80, arrestin, agonist mode [30]: 9.82 nM

Substance: Complement C5a (from UniProt P01031 678-751) (ligand)
- EC50 (RC50), arrestin, agonist mode [31]: 1.57 nM
- EC80, arrestin, agonist mode [31]: 2.7 nM
- EC50 (RC50), arrestin, agonist mode [32]: 1.38 nM
- EC80, arrestin, agonist mode [32]: 3.64 nM

Substance: VIP (from UniProt P01282 125-152) (peptide)
- EC50 (RC50), arrestin, agonist mode [33]: 1.73 nM
- EC80, arrestin, agonist mode [33]: 3.69 nM
